# T1: human G-CSF receptor (human, UniProt Q99062 25-836)
# T1 sequence (looked up): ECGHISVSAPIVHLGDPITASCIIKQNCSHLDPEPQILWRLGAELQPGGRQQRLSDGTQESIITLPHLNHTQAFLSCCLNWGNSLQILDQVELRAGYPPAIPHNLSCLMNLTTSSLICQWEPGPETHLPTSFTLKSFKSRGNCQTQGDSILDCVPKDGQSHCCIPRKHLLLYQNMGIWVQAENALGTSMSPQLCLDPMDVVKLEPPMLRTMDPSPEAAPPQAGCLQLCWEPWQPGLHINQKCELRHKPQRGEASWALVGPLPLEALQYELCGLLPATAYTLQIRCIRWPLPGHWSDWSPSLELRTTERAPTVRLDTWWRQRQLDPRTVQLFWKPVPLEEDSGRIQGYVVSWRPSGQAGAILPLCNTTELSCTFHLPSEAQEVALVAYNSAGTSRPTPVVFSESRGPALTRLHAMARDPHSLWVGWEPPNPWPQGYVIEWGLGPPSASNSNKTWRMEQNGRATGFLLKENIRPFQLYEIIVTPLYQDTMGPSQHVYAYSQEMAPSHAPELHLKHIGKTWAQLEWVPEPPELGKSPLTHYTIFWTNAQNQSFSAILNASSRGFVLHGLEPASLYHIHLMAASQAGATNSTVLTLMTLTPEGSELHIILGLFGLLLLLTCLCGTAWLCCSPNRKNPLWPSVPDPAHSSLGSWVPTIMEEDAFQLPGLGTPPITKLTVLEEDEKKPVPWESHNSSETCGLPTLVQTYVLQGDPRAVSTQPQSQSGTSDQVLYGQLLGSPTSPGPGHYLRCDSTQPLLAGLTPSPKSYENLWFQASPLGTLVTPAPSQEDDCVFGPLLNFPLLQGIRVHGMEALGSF
# Molecular target: T1, human G-CSF receptor
# Test: cell-based or functional assay
Binder,EC50 (% of hG-CSF) conjugated to SPA-PEG 12000,EC50(% of hG-CSF) conjugated to SPA-PEG 20000
"G-CSF variant K16/34/40R Q90K conjugated to SPA-PEG 20000 (ligand, conjugated to SPA-PEG 20000) TPLGPASSLPQSFLLRCLEQVRKIQGDGAALQERLCATYRLCHPEELVLLGHSLGIPWAPLSSCPSQALQLAGCLSQLHSGLFLYQGLLKALEGISPELGPTLDTLQLDVADFATTIWQQMEELGMAPALQPTQGAMPAFASAFQRRAGGVLVASHLQSFLEVSYRVLRHLAQP",–,7 % of hG-CSF
"G-CSF variant K16/34/40R Q70K Q90K conjugated to SPA-PEG 12000 (ligand, conjugated to SPA-PEG 12000) TPLGPASSLPQSFLLRCLEQVRKIQGDGAALQERLCATYRLCHPEELVLLGHSLGIPWAPLSSCPSQALKLAGCLSQLHSGLFLYQGLLKALEGISPELGPTLDTLQLDVADFATTIWQQMEELGMAPALQPTQGAMPAFASAFQRRAGGVLVASHLQSFLEVSYRVLRHLAQP",8 % of hG-CSF,–
"G-CSF variant K16/34/40R Q90K T105K conjugated to SPA-PEG 12000 (ligand, conjugated to SPA-PEG 12000) TPLGPASSLPQSFLLRCLEQVRKIQGDGAALQERLCATYRLCHPEELVLLGHSLGIPWAPLSSCPSQALQLAGCLSQLHSGLFLYQGLLKALEGISPELGPTLDKLQLDVADFATTIWQQMEELGMAPALQPTQGAMPAFASAFQRRAGGVLVASHLQSFLEVSYRVLRHLAQP",1 % of hG-CSF,–
"G-CSF variant K16/34/40R Q90K T105K conjugated to SPA-PEG 20000 (ligand, conjugated to SPA-PEG 20000) TPLGPASSLPQSFLLRCLEQVRKIQGDGAALQERLCATYRLCHPEELVLLGHSLGIPWAPLSSCPSQALQLAGCLSQLHSGLFLYQGLLKALEGISPELGPTLDKLQLDVADFATTIWQQMEELGMAPALQPTQGAMPAFASAFQRRAGGVLVASHLQSFLEVSYRVLRHLAQP",–,< 1 % of hG-CSF

# Next, values leading:
EC50 (% of hG-CSF) conjugated to SPA-PEG 12000,EC50(% of hG-CSF) conjugated to SPA-PEG 20000,Binder
10 % of hG-CSF,–,"G-CSF variant K16/34/40R conjugated to SPA-PEG 12000 (ligand, conjugated to SPA-PEG 12000) TPLGPASSLPQSFLLRCLEQVRKIQGDGAALQERLCATYRLCHPEELVLLGHSLGIPWAPLSSCPSQALQLAGCLSQLHSGLFLYQGLLQALEGISPELGPTLDTLQLDVADFATTIWQQMEELGMAPALQPTQGAMPAFASAFQRRAGGVLVASHLQSFLEVSYRVLRHLAQP"
–,1 % of hG-CSF,"G-CSF variant K16/34/40R conjugated to SPA-PEG 20000 (ligand, conjugated to SPA-PEG 20000) TPLGPASSLPQSFLLRCLEQVRKIQGDGAALQERLCATYRLCHPEELVLLGHSLGIPWAPLSSCPSQALQLAGCLSQLHSGLFLYQGLLQALEGISPELGPTLDTLQLDVADFATTIWQQMEELGMAPALQPTQGAMPAFASAFQRRAGGVLVASHLQSFLEVSYRVLRHLAQP"

# Molecular target: T1, human G-CSF receptor
# Test: cell-based or functional assay
# Remark: another data set of the same source
Binder,EC50 (% of hG-CSF) non-conjugated,EC50 (% of hG-CSF) conjugated to SPA-PEG 5000
"G-CSF variant K16/34/40R Q70K Q90K Q120K, non-conjugated (ligand) TPLGPASSLPQSFLLRCLEQVRKIQGDGAALQERLCATYRLCHPEELVLLGHSLGIPWAPLSSCPSQALKLAGCLSQLHSGLFLYQGLLKALEGISPELGPTLDTLQLDVADFATTIWQKMEELGMAPALQPTQGAMPAFASAFQRRAGGVLVASHLQSFLEVSYRVLRHLAQP",20 % of hG-CSF,–
"G-CSF variant K16/34/40R Q90K S159K, non-conjugated (ligand) TPLGPASSLPQSFLLRCLEQVRKIQGDGAALQERLCATYRLCHPEELVLLGHSLGIPWAPLSSCPSQALQLAGCLSQLHSGLFLYQGLLKALEGISPELGPTLDTLQLDVADFATTIWQQMEELGMAPALQPTQGAMPAFASAFQRRAGGVLVASHLQKFLEVSYRVLRHLAQP",45 % of hG-CSF,–
"G-CSF variant 23Q, non-conjugated (ligand) TPLGPASSLPQSFLLKCLEQVRQIQGDGAALQEKLCATYKLCHPEELVLLGHSLGIPWAPLSSCPSQALQLAGCLSQLHSGLFLYQGLLQALEGISPELGPTLDTLQLDVADFATTIWQQMEELGMAPALQPTQGAMPAFASAFQRRAGGVLVASHLQSFLEVSYRVLRHLAQP",80 % of hG-CSF,–
"G-CSF variant K16/34/40R Q120K S142K conjugated to SPA-PEG 5000 (ligand, SPA-PEG 5000 conjugated to the available PEGylation sites) TPLGPASSLPQSFLLRCLEQVRKIQGDGAALQERLCATYRLCHPEELVLLGHSLGIPWAPLSSCPSQALQLAGCLSQLHSGLFLYQGLLQALEGISPELGPTLDTLQLDVADFATTIWQKMEELGMAPALQPTQGAMPAFAKAFQRRAGGVLVASHLQSFLEVSYRVLRHLAQP",–,2 % of hG-CSF
"G-CSF variant K16/34/40R Q70K Q90K T105K conjugated to SPA-PEG 5000 (ligand, SPA-PEG 5000 conjugated to the available PEGylation sites) TPLGPASSLPQSFLLRCLEQVRKIQGDGAALQERLCATYRLCHPEELVLLGHSLGIPWAPLSSCPSQALKLAGCLSQLHSGLFLYQGLLKALEGISPELGPTLDKLQLDVADFATTIWQQMEELGMAPALQPTQGAMPAFASAFQRRAGGVLVASHLQSFLEVSYRVLRHLAQP",–,4 % of hG-CSF
"G-CSF variant K16/34/40R Q70K Q90K T105K, non-conjugated (ligand) TPLGPASSLPQSFLLRCLEQVRKIQGDGAALQERLCATYRLCHPEELVLLGHSLGIPWAPLSSCPSQALKLAGCLSQLHSGLFLYQGLLKALEGISPELGPTLDKLQLDVADFATTIWQQMEELGMAPALQPTQGAMPAFASAFQRRAGGVLVASHLQSFLEVSYRVLRHLAQP",10 % of hG-CSF,–
"G-CSF variant K16/34/40R Q120K T133K conjugated to SPA-PEG 5000 (ligand, SPA-PEG 5000 conjugated to the available PEGylation sites) TPLGPASSLPQSFLLRCLEQVRKIQGDGAALQERLCATYRLCHPEELVLLGHSLGIPWAPLSSCPSQALQLAGCLSQLHSGLFLYQGLLQALEGISPELGPTLDTLQLDVADFATTIWQKMEELGMAPALQPKQGAMPAFASAFQRRAGGVLVASHLQSFLEVSYRVLRHLAQP",–,8 % of hG-CSF
"G-CSF variant K16/34/40R Q120K S142K, non-conjugated (ligand) TPLGPASSLPQSFLLRCLEQVRKIQGDGAALQERLCATYRLCHPEELVLLGHSLGIPWAPLSSCPSQALQLAGCLSQLHSGLFLYQGLLQALEGISPELGPTLDTLQLDVADFATTIWQKMEELGMAPALQPTQGAMPAFAKAFQRRAGGVLVASHLQSFLEVSYRVLRHLAQP",10 % of hG-CSF,–

# Results, then the binder that gave them:
EC50 (% of hG-CSF) non-conjugated,EC50 (% of hG-CSF) conjugated to SPA-PEG 5000,Binder
–,20 % of hG-CSF,"G-CSF variant K16/34/40R T105K S159K conjugated to SPA-PEG 5000 (ligand, SPA-PEG 5000 conjugated to the available PEGylation sites) TPLGPASSLPQSFLLRCLEQVRKIQGDGAALQERLCATYRLCHPEELVLLGHSLGIPWAPLSSCPSQALQLAGCLSQLHSGLFLYQGLLQALEGISPELGPTLDKLQLDVADFATTIWQQMEELGMAPALQPTQGAMPAFASAFQRRAGGVLVASHLQKFLEVSYRVLRHLAQP"
40 % of hG-CSF,–,"G-CSF variant K16/34/40R T105K S159K, non-conjugated (ligand) TPLGPASSLPQSFLLRCLEQVRKIQGDGAALQERLCATYRLCHPEELVLLGHSLGIPWAPLSSCPSQALQLAGCLSQLHSGLFLYQGLLQALEGISPELGPTLDKLQLDVADFATTIWQQMEELGMAPALQPTQGAMPAFASAFQRRAGGVLVASHLQKFLEVSYRVLRHLAQP"
–,8 % of hG-CSF,"G-CSF variant K16/34/40R T105K Q120K conjugated to SPA-PEG 5000 (ligand, SPA-PEG 5000 conjugated to the available PEGylation sites) TPLGPASSLPQSFLLRCLEQVRKIQGDGAALQERLCATYRLCHPEELVLLGHSLGIPWAPLSSCPSQALQLAGCLSQLHSGLFLYQGLLQALEGISPELGPTLDKLQLDVADFATTIWQKMEELGMAPALQPTQGAMPAFASAFQRRAGGVLVASHLQSFLEVSYRVLRHLAQP"
20 % of hG-CSF,–,"G-CSF variant K16/34/40R Q120K T133K, non-conjugated (ligand) TPLGPASSLPQSFLLRCLEQVRKIQGDGAALQERLCATYRLCHPEELVLLGHSLGIPWAPLSSCPSQALQLAGCLSQLHSGLFLYQGLLQALEGISPELGPTLDTLQLDVADFATTIWQKMEELGMAPALQPKQGAMPAFASAFQRRAGGVLVASHLQSFLEVSYRVLRHLAQP"
20 % of hG-CSF,–,"G-CSF variant K16/34/40R T105K Q120K, non-conjugated (ligand) TPLGPASSLPQSFLLRCLEQVRKIQGDGAALQERLCATYRLCHPEELVLLGHSLGIPWAPLSSCPSQALQLAGCLSQLHSGLFLYQGLLQALEGISPELGPTLDKLQLDVADFATTIWQKMEELGMAPALQPTQGAMPAFASAFQRRAGGVLVASHLQSFLEVSYRVLRHLAQP"
